Publication PMC8282039

Target: CDY14HL-Fc4 (human) (UniProt Q9BYF1)
Assay: SPR

SARS-CoV-2 receptor binding domain (RBD), Wuhan (from UniProt P0DTC2 330-530) (domain or fragment)
Kd: 31 pM
